From PMC4528141, “Generating a Metal-responsive Transcriptional Regulator to Test What Confers Metal Sensing in Cells*”

Target: T1, FrmR (Salmonella enterica serovar Typhimurium …, UniProt A0A719I766 1-91)
T1 sequence: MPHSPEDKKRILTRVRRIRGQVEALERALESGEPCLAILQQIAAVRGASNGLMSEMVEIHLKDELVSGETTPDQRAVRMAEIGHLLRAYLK
Assay: fluorescence anisotropy; apo, 5 mM EDTA; 10 nM DNA; 2 tetramers:DNA, equal affinity; 10 mM HEPES pH 7.0, 60 mM NaCl, 240 mM KCl, 25 C, anaerobic; 5 mM EDTA (apo) or ZnCl2 (5 uM in text, 20 uM in Table 2)
Conditions: protein: recombinant; tags: none stated (pET29a NdeI; reverse primer carries native stop); chain copies: 8; label: 5' HEX on strand 1; blunt

B1: frmRAPro (dsDNA)
DNA 1: TTCTGATAGTATACCCCCCTATAGTATATGGAG
DNA 2: CTCCATATACTATAGGGGGGTATACTATCAGAA
B1 showed a Kd of 99.4 nM.
